US20150246949A1, “Desmoglein 2 (DSG2) Binding Proteins and Uses Therefor” (UNIVERSITY OF WASHINGTON THROUGH ITS CENTER FOR …, priority 2012, published 2015)

Test system: Ad3-GFP virus
Experiment: Competition of Ad3-GFP virus infection on HeLa cells
Type: cell-based, adenovirus serotype 3 (Ad3)
Settings: HeLa cells pre-incubated with knob, 100 pfu/cell Ad3-GFP, GFP at 18 hours
Experimental: FIG. 3. Competition of Ad3 virus by dimerized Ad3 knob mutants. A) Relative attachment of ^3H-labeled Ad3 virus in the presence of dimeric fiber knob mutants. 1.8×10^5 HeLa cells were incubated with Ad3 knob mutants at a concentration of 2.5 and 100 μg/ml on ice for 1 hour. Then 400 pfu/cell of ^3H-Ad3 virus was added on ice for another hour. Unbound virus particles were washed away. Attachment of virus particles incubated with PBS was taken as 100%. N=3. B) Competition of Ad3-GFP virus infection on HeLa cells. 1.5×10^5 HeLa cells were seeded into 24 well plates. Cells were incubated with the Ad3 knob mutants at increasing concentrations for one hour at room temperature. 100 pfu/cell of Ad3-GFP virus were then added and GFP expression was analyzed 18 hours later by flow cytometry. Left panel: percentage of GFP positive cells. Right panel: mean fluorescence intensity. N=3. The standard deviation was less than 10%. C) Relative attachment of ^3H-labeled Ad3 virus in the presence of dimeric fiber knob mutants with multiple mutations. The study was performed as described in […]) The standard deviation was less than 10%. D) Competition of Ad3-GFP virus infection on HeLa cells. The study was performed as described in C) The standard deviation was less than 10%.
FIG. 9. Analysis of dimeric Ad3 fiber knob mutants with increased affinity to DSG2. A) Competition of Ad3-GFP virus infection on HeLa cells with dimeric affinity-enhanced mutant Y250F and JO-1 (dimeric wt Ad3 fiber knob). The experimental setting is as described for FIG. 3C. left panel: percentage of GFP positive cells. Right panel: mean fluorescence intensity. N=3. The standard deviation was less than 10%. […] 100 pfu/cell of Ad3GFP virus were then added and GFP expression was analyzed 18 hours later. […]
Competition studies were performed on HeLa cells, which express DSG2 (42). […] Transduction was measured based on GFP expression (FIG. 3B). […] Dimeric Ad3 knob mutants with combined mutations were also analyzed for their ability to compete with Ad3 virus for attachment (FIG. 3C) and infection (FIG. 3D).

B1: D261N (protein)
chain: MKVSALKEKVSALKEKVSALKEKVSALKEKVSALKEGSGGGSGGGSGGGSNSIALKNNTLWTGPKPEANCIIEYGKQNPDSKLTLILVKNGGIVNGYVTLMGASDYVNTLFKNKNVSINVELYFDATGHILPDSSSLKTDLELKYKQTADFSARGFMPSTTAYPFVLPNAGTHNENYIFGQCYYKASNGALFPLEVTVMLNKRLPDSRTSYVMTFLWSLNAGLAPETTQATLITSPFTFSYIREDD
Competition of Ad3-GFP infection based on GFP expression: least reduced
